Drawing on article PMC12102759 (2025), this text covers screen value for 62 variants.

First the molecules themselves.
B1: AXIN1 peptide 237-252 (Axin-1), 16-mer library wild type / PP2A B56 (PPP2R5A B56 domain, residues 1-486) (parent complex)
chain 1: YLPTLNEDEEWKADQD
chain 2: not shown
B2: SH3BP2 peptide 408-423 (SH3 domain-binding protein 2), 16-mer library wild type / TNKS ANK (TNKS 12 ANK repeats, residues 174-649) (parent complex)
chain 1: PQLPHLQRSPPDGQSF
chain 2: TGVPAVSGALRELLEACRNGDVSRVKRLVDAANVNAKDMAGRKSSPLHFAAGFGRKDVVEHLLQMGANVHARDDGGLIPLHNACSFGHAEVVSLLLCQGADPNARDNWNYTPLHEAAIKGKIDVCIVLLQHGADPNIRNTDGKSALDLADPSAKAVLTGEYKKDELLEAARSGNEEKLMALLTPLNVNCHASDGRKSTPLHLAAGYNRVRIVQLLLQHGADVHAKDKGGLVPLHNACSYGHYEVTELLLKHGACVNAMDLWQFTPLHEAASKNRVEVCSLLLSHGADPTLVNCHGKSAVDMAPTPELRERLTYEFKGHSLLQAAREADLAKVKKTLALEIINFKQPQSHETALHCAVASLHPKRKQVTELLLRKGANVNEKNKDFMTPLHVAAERAHNDVMEVLHKHGAKMNALDTLGQTALHRAALAGHLQTCRLLLSYGSDPSIISLQGFTAAQMGNEAVQQILSESTPIRTSD

The first experiment covers variants of B1. The experiment in a line: proteomic peptide phage display deep mutational scan (ProP-PD DMS): M13 P8 16-mer library selected against immobilised GST-tagged bait for four days (rounds), NGS of the eluted pools per day and pseudo-replica; bait immobilised on MaxiSorp plates (10 µg), library pre-cleared on GST, 2 h binding at 4 °C, five washes; one round per day, days 1-4; value from days 2 and 3.
With chain 1 D8W, the screen value was 0.000322 average fractional NGS count over selection days 2 and 3 (reads of this peptide / all reads for the bait, averaged over …. Still for that read-out and setting: under chain 1 D8N stands 0.000367 average fractional NGS count over selection days 2 and 3 (reads of this peptide / all reads for the bait, averaged over …; under chain 1 D8I, 0.000369 average fractional NGS count over selection days 2 and 3 (reads of this peptide / all reads for the bait, averaged over ….

With chain 1 D8M, the screen value is 0.000462 average fractional NGS count over selection days 2 and 3 (reads of this peptide / all reads for the bait, averaged over ….

Take chain 1 Y1M: the screen value was 0.000646 average fractional NGS count over selection days 2 and 3 (reads of this peptide / all reads for the bait, averaged over …. Take chain 1 Y1I: the screen value is 0.00029 average fractional NGS count over selection days 2 and 3 (reads of this peptide / all reads for the bait, averaged over ….

With chain 1 Y1P, the screen value was 0.000164 average fractional NGS count over selection days 2 and 3 (reads of this peptide / all reads for the bait, averaged over …. Still for that read-out and setting: to chain 1 Y1T belongs 0.00199 average fractional NGS count over selection days 2 and 3 (reads of this peptide / all reads for the bait, averaged over ….

On to chain 1 E10S, for which the screen value was 0.000255 average fractional NGS count over selection days 2 and 3 (reads of this peptide / all reads for the bait, averaged over …. With chain 1 E10G, the screen value was 0.00014 average fractional NGS count over selection days 2 and 3 (reads of this peptide / all reads for the bait, averaged over …. Still for that read-out and setting: under chain 1 E10Q stands 0.000224 average fractional NGS count over selection days 2 and 3 (reads of this peptide / all reads for the bait, averaged over …. The same measure, in the same setting: to chain 1 E10H belongs 0.000923 average fractional NGS count over selection days 2 and 3 (reads of this peptide / all reads for the bait, averaged over …. On to chain 1 E9F, for which the screen value was 0.00128 average fractional NGS count over selection days 2 and 3 (reads of this peptide / all reads for the bait, averaged over …. Take chain 1 E9Y: the screen value is 0.0102 average fractional NGS count over selection days 2 and 3 (reads of this peptide / all reads for the bait, averaged over …. Same read-out and setting: under chain 1 E9M stands 0.00292 average fractional NGS count over selection days 2 and 3 (reads of this peptide / all reads for the bait, averaged over …. On the same count and under the same terms, under chain 1 E9L stands 0.000568 average fractional NGS count over selection days 2 and 3 (reads of this peptide / all reads for the bait, averaged over …; under chain 1 E9D, 0.000572 average fractional NGS count over selection days 2 and 3 (reads of this peptide / all reads for the bait, averaged over …; under chain 1 E9K, 0.00203 average fractional NGS count over selection days 2 and 3 (reads of this peptide / all reads for the bait, averaged over …. Turning to chain 1 P3H, the screen value is 0.00026 average fractional NGS count over selection days 2 and 3 (reads of this peptide / all reads for the bait, averaged over ….

For the variant chain 1 P3E, the screen value was 0.000951 average fractional NGS count over selection days 2 and 3 (reads of this peptide / all reads for the bait, averaged over …. On the same count and under the same terms, under chain 1 D14M stands 0.0116 average fractional NGS count over selection days 2 and 3 (reads of this peptide / all reads for the bait, averaged over …; under chain 1 D14W, 0.0112 average fractional NGS count over selection days 2 and 3 (reads of this peptide / all reads for the bait, averaged over …; under chain 1 D14R, 0.0071 average fractional NGS count over selection days 2 and 3 (reads of this peptide / all reads for the bait, averaged over …. Still for that read-out and setting: to chain 1 D14L belongs 0.00106 average fractional NGS count over selection days 2 and 3 (reads of this peptide / all reads for the bait, averaged over …; to chain 1 W11Q, 0.000237 average fractional NGS count over selection days 2 and 3 (reads of this peptide / all reads for the bait, averaged over …. For the variant chain 1 W11V, the screen value was 0.000957 average fractional NGS count over selection days 2 and 3 (reads of this peptide / all reads for the bait, averaged over …. On to chain 1 W11I, for which the screen value is 0.000232 average fractional NGS count over selection days 2 and 3 (reads of this peptide / all reads for the bait, averaged over …. As to chain 1 Q15I, the screen value is 0.00307 average fractional NGS count over selection days 2 and 3 (reads of this peptide / all reads for the bait, averaged over …. The same measure, in the same setting: to chain 1 Q15E belongs 0.00341 average fractional NGS count over selection days 2 and 3 (reads of this peptide / all reads for the bait, averaged over …; to chain 1 Q15D, 0.000993 average fractional NGS count over selection days 2 and 3 (reads of this peptide / all reads for the bait, averaged over …. On the same count and under the same terms, under chain 1 Q15H stands 0.0369 average fractional NGS count over selection days 2 and 3 (reads of this peptide / all reads for the bait, averaged over …; under chain 1 Q15K, 0.000314 average fractional NGS count over selection days 2 and 3 (reads of this peptide / all reads for the bait, averaged over …. Same read-out and setting: under chain 1 Q15M stands 0.00211 average fractional NGS count over selection days 2 and 3 (reads of this peptide / all reads for the bait, averaged over ….

chain 1 Q15Y: the screen value was 0.00911 average fractional NGS count over selection days 2 and 3 (reads of this peptide / all reads for the bait, averaged over …. Consider chain 1 K12M, for which the screen value is 0.000504 average fractional NGS count over selection days 2 and 3 (reads of this peptide / all reads for the bait, averaged over …. Still for that read-out and setting: to chain 1 K12G belongs 0.00482 average fractional NGS count over selection days 2 and 3 (reads of this peptide / all reads for the bait, averaged over …; to chain 1 K12T, 0.00858 average fractional NGS count over selection days 2 and 3 (reads of this peptide / all reads for the bait, averaged over …; to chain 1 K12A, 0.00844 average fractional NGS count over selection days 2 and 3 (reads of this peptide / all reads for the bait, averaged over ….

For the variant chain 1 K12F, the screen value was 0.00191 average fractional NGS count over selection days 2 and 3 (reads of this peptide / all reads for the bait, averaged over ….

For chain 1 T4Y, the screen value was 0.00014 average fractional NGS count over selection days 2 and 3 (reads of this peptide / all reads for the bait, averaged over …. The same measure, in the same setting: to chain 1 T4M belongs 0.000565 average fractional NGS count over selection days 2 and 3 (reads of this peptide / all reads for the bait, averaged over ….

As to chain 1 A13M, the screen value is 0.000333 average fractional NGS count over selection days 2 and 3 (reads of this peptide / all reads for the bait, averaged over …. As for chain 1 A13F, the screen value is 0.000843 average fractional NGS count over selection days 2 and 3 (reads of this peptide / all reads for the bait, averaged over …. As to chain 1 A13Y, the screen value is 0.00559 average fractional NGS count over selection days 2 and 3 (reads of this peptide / all reads for the bait, averaged over ….

As for chain 1 N6D, the screen value was 0.00102 average fractional NGS count over selection days 2 and 3 (reads of this peptide / all reads for the bait, averaged over …. The same measure, in the same setting: to chain 1 N6K belongs 0.0012 average fractional NGS count over selection days 2 and 3 (reads of this peptide / all reads for the bait, averaged over …; to chain 1 N6R, 0.000965 average fractional NGS count over selection days 2 and 3 (reads of this peptide / all reads for the bait, averaged over ….

As for chain 1 N6V, the screen value was 0.00339 average fractional NGS count over selection days 2 and 3 (reads of this peptide / all reads for the bait, averaged over ….

In the next experiment the parent is B2. The description is as above.
In the case of chain 1 PQLPHLQRSPPDGQSE [chain 1 F16E], the screen value was 0.000221 average fractional NGS count over selection days 2 and 3 (reads of this peptide / all reads for the bait, averaged over …. Same read-out and setting: under chain 1 PQLPHLQRSPPDGQSA [chain 1 F16A] stands 0.00179 average fractional NGS count over selection days 2 and 3 (reads of this peptide / all reads for the bait, averaged over …; under chain 1 PQLPHLQRSPPDGQSD [chain 1 F16D], 0.000232 average fractional NGS count over selection days 2 and 3 (reads of this peptide / all reads for the bait, averaged over …; under chain 1 PQLPHLQRSPPDGQSM [chain 1 F16M], 0.00196 average fractional NGS count over selection days 2 and 3 (reads of this peptide / all reads for the bait, averaged over ….

With chain 1 PQLPHLQRSPPDGQSQ [chain 1 F16Q], the screen value was 0.000905 average fractional NGS count over selection days 2 and 3 (reads of this peptide / all reads for the bait, averaged over …. Same read-out and setting: under chain 1 PQLPHLQRSPPDGQSH [chain 1 F16H] stands 0.00294 average fractional NGS count over selection days 2 and 3 (reads of this peptide / all reads for the bait, averaged over ….

Turning to chain 1 PQLPHLKRSPPDGQSF [chain 1 Q7K], the screen value was 0.000537 average fractional NGS count over selection days 2 and 3 (reads of this peptide / all reads for the bait, averaged over …. Still for that read-out and setting: to chain 1 PQLPHLFRSPPDGQSF [chain 1 Q7F] belongs 0.00823 average fractional NGS count over selection days 2 and 3 (reads of this peptide / all reads for the bait, averaged over …; to chain 1 PQLPHLHRSPPDGQSF [chain 1 Q7H], 0.00147 average fractional NGS count over selection days 2 and 3 (reads of this peptide / all reads for the bait, averaged over …; to chain 1 PQLPHLLRSPPDGQSF [chain 1 Q7L], 0.00476 average fractional NGS count over selection days 2 and 3 (reads of this peptide / all reads for the bait, averaged over …. The same measure, in the same setting: to chain 1 PQLPHLVRSPPDGQSF [chain 1 Q7V] belongs 0.00169 average fractional NGS count over selection days 2 and 3 (reads of this peptide / all reads for the bait, averaged over ….

As for chain 1 PQLPHLMRSPPDGQSF [chain 1 Q7M], the screen value is 0.00158 average fractional NGS count over selection days 2 and 3 (reads of this peptide / all reads for the bait, averaged over …. Still for that read-out and setting: to chain 1 PQLPHLYRSPPDGQSF [chain 1 Q7Y] belongs 0.00125 average fractional NGS count over selection days 2 and 3 (reads of this peptide / all reads for the bait, averaged over …; to chain 1 PQLPHLSRSPPDGQSF [chain 1 Q7S], 0.000276 average fractional NGS count over selection days 2 and 3 (reads of this peptide / all reads for the bait, averaged over ….
